Results published in US20040110688A1 (SAINT LOUIS UNIVERSITY, published 2004).

T1: factor VIIIa (human, UniProt P00451 20-2351)
T1 sequence (looked up): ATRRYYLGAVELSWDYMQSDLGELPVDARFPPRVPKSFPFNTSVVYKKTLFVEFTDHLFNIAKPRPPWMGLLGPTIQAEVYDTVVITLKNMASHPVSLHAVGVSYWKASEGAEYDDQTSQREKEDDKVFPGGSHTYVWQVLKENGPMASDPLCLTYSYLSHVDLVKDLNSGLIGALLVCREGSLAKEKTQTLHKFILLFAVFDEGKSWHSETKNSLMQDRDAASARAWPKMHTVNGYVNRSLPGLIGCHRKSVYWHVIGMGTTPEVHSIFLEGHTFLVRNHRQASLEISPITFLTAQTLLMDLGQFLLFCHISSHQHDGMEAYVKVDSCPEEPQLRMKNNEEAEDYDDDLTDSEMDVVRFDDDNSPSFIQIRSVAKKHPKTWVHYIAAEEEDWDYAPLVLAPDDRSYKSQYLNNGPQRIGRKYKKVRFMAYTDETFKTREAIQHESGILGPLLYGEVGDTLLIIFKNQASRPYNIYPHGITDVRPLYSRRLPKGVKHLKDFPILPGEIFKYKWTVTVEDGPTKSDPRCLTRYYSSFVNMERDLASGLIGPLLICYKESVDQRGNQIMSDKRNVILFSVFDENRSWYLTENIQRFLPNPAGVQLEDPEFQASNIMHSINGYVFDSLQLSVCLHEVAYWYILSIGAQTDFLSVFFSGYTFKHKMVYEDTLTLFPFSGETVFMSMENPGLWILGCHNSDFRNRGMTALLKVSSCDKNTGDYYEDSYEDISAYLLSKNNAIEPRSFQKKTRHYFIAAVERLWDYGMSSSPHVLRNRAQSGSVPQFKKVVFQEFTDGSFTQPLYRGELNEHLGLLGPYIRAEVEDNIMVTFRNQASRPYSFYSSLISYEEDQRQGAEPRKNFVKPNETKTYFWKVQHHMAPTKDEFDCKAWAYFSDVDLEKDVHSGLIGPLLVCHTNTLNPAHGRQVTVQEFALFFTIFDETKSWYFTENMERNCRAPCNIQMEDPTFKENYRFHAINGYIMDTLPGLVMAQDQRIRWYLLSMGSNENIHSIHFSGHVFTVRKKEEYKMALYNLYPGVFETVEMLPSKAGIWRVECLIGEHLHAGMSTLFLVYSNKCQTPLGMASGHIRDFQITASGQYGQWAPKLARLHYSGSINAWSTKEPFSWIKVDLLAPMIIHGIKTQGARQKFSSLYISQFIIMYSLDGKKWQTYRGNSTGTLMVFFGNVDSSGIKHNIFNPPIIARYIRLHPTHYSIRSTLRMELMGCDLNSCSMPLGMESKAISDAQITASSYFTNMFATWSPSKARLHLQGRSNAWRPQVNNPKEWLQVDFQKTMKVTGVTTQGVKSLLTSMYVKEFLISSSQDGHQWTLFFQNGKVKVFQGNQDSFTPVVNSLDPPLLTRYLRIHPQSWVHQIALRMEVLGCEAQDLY


biological target: T1, factor VIIIa; assay: peptide competition assay: inhibition of factor X activation by IXa with VIIIa and phospholipid
Method: Each reaction was incubated for either 30, 60, 90, or 120 seconds and the reaction was stopped by adding 1.5 μL of 0.5 M EDTA and placed on ice. Forty μL of each reaction was added to 100 μL of TBS/BSA in a 96 well microtiter plate and S-2222 (Bz-Ile-Glu(γ-OR)-Gly-Arg-p-nitroanilide) was added to a final concentration of 100 μM.

Binder | IC50 [µM]
LVDRAT [P-4351 SEQ ID NO: 6 (LVDRAT)] | 0.7
LVDQAT [P-4353 SEQ ID NO: 8 (LVDQAT)] | 9.3
LVYRAT [P-4352 SEQ ID NO: 7 (LVYRAT)] | 13.2
DGDQCESNPCLNGGSCKDDINSYECWCPFGFEGKNCELD (other, UniProt P00740 93-131, looked up, domain: EGF1 Domain) [EGF1 Domain] | 12
DRAT [P-4488 SEQ ID NO: 2 (DRAT)] | 89.8

biological target: T1, factor VIIIa; assay: Kd from the peptide competition assay (factor X activation by IXa with VIIIa and phospholipid)

Binder | Kd [µM]
TKVSRYVN [P-4354 (TKVSRYVN)] | 1
LVDRAT [P-4351 SEQ ID NO: 6 (LVDRAT)] | 0.35
LVDQAT [P-4353 SEQ ID NO: 8 (LVDQAT)] | 4.7
LVYRAT [P-4352 SEQ ID NO: 7 (LVYRAT)] | 6.6
DGDQCESNPCLNGGSCKDDINSYECWCPFGFEGKNCELD (other, UniProt P00740 93-131, looked up, domain: EGF1 Domain) [EGF1 Domain] | 6
DRAT [P-4488 SEQ ID NO: 2 (DRAT)] | 44.9
